Assay results taken from the Human Domainome abundance scans (Beltran et al. 2025).
± gives the uncertainty stated by the source.

B1: Homeobox protein cut-like 1, residues 941 to 1008; numbered along this chain, P39880 (parent)
chain: QEVDTIELTRQVKEKLAKNGICQRIFGEKVLGLSQGSVSDMLSRPKPWSKLTQKGREPFIRMQLWLNG

Variants of: B1
Experiment: abundance fitness (aPCA) (normalised: wild type 0, dead -1); higher = more abundant; growth selection in yeast, the domain comes from the species named
Details: Homo sapiens

Abundance fitness: each site, then its substitutions
L33: W -0.115 ± 0.076; H -0.174 ± 0.083; R -0.213 ± 0.059; T -0.06 ± 0.061; V 0.025 ± 0.046; I 0.144 ± 0.088; K -0.092 ± 0.07; E -0.262 ± 0.081; F -0.134 ± 0.067
V30: G 0.111 ± 0.43; P 0.123 ± 0.4; A -0.253 ± 0.26; L -0.416 ± 0.49; Y -0.038 ± 0.25; F -0.657 ± 0.29
G27: Q -0.314 ± 0.087; A 0.1 ± 0.054; H -0.184 ± 0.14; L -0.12 ± 0.056; M -0.208 ± 0.071; Y -0.144 ± 0.11; F -0.086 ± 0.1; R -0.177 ± 0.054; I -0.067 ± 0.11; S -0.008 ± 0.053; V -0.231 ± 0.047; C -0.019 ± 0.074; T -0.201 ± 0.067; W -0.569 ± 0.099; K -0.137 ± 0.088; E -0.131 ± 0.068; D -0.545 ± 0.094
N19: Y -0.331 ± 0.12
R24: M -0.315 ± 0.097; D -0.074 ± 0.11; V -0.204 ± 0.062; G -0.224 ± 0.07; E 0.109 ± 0.12; N 0.005 ± 0.14; K -0.07 ± 0.09; C -0.22 ± 0.074; T -0.268 ± 0.081; F -0.362 ± 0.097; Y -0.101 ± 0.1; I -0.29 ± 0.12; Q -0.088 ± 0.081; W -0.144 ± 0.065; L -0.253 ± 0.055; S -0.136 ± 0.055; P -0.559 ± 0.082
I25: K -0.022 ± 0.081; D 0.156 ± 0.11; L -0.09 ± 0.052; V -0.008 ± 0.051; H 0.073 ± 0.12; G -0.225 ± 0.049; S -0.03 ± 0.059; Y 0.014 ± 0.086; A -0.002 ± 0.062; W 0.021 ± 0.068; F 0.07 ± 0.089; T 0.083 ± 0.08; P -0.578 ± 0.092; C -0.283 ± 0.1; Q -0.073 ± 0.083; E 0.125 ± 0.079
S37: T -0.104 ± 0.075; M -0.126 ± 0.085; Y -0.173 ± 0.08; W -0.108 ± 0.069; G -0.123 ± 0.051; E 0.052 ± 0.1; V -0.039 ± 0.063; C 0.066 ± 0.065; A 0.118 ± 0.061; P -0.189 ± 0.073; I -0.076 ± 0.089; F -0.014 ± 0.095; N -0.033 ± 0.078; Q 0.111 ± 0.098; D 0.251 ± 0.093; R -0.099 ± 0.05
V38: N -0.331 ± 0.088; C -0.096 ± 0.08; K -0.161 ± 0.083; T 0.164 ± 0.08; L -0.026 ± 0.057; P -0.364 ± 0.08; H -0.308 ± 0.11; D -0.188 ± 0.088; F 0.048 ± 0.13; S -0.086 ± 0.059; Y 0.027 ± 0.11; W 0.063 ± 0.073; G -0.263 ± 0.05; A -0.215 ± 0.075; Q -0.273 ± 0.086; I -0.022 ± 0.12; E -0.282 ± 0.063; M -0.147 ± 0.084; R -0.22 ± 0.044
E28: N -0.134 ± 0.11; Y -0.229 ± 0.11; Q -0.127 ± 0.083; K -0.106 ± 0.076; V -0.214 ± 0.056; W -0.104 ± 0.063; C -0.286 ± 0.11; A -0.036 ± 0.057; D -0.307 ± 0.11; P -0.145 ± 0.069; G -0.072 ± 0.059; I -0.277 ± 0.094; R -0.026 ± 0.053; F -0.195 ± 0.091; L -0.113 ± 0.045; H -0.197 ± 0.15; T -0.041 ± 0.067
Q35: A 0.039 ± 0.06; D 0.066 ± 0.11; L -0.003 ± 0.046; I -0.116 ± 0.089; F 0.044 ± 0.13; W 0.064 ± 0.076; Y 0.015 ± 0.14; K -0.016 ± 0.067; T 0.01 ± 0.067; H -0.024 ± 0.11; V 0 ± 0.049; N -0.353 ± 0.14; E 0.124 ± 0.063; M -0.033 ± 0.062; S 0.034 ± 0.062; P 0.121 ± 0.068; G -0.003 ± 0.059
S34: G -0.132 ± 0.056; P 0.101 ± 0.069; Y -0.108 ± 0.078; T -0.196 ± 0.12; D -0.046 ± 0.1; K 0.017 ± 0.068; H -0.139 ± 0.18; L -0.113 ± 0.049; R 0.02 ± 0.055; Q -0.125 ± 0.096; V -0.137 ± 0.059; E -0.004 ± 0.072; M -0.017 ± 0.07; C -0.09 ± 0.084; F 0.008 ± 0.091; A -0.01 ± 0.076; W -0.059 ± 0.07
S39: P -0.126 ± 0.069; E 0.031 ± 0.07; V -0.073 ± 0.052; G 0.019 ± 0.06; W -0.28 ± 0.072; A 0.005 ± 0.056; K 0.039 ± 0.061; R 0.007 ± 0.048; N 0.029 ± 0.088; F -0.156 ± 0.095; M 0.01 ± 0.052; D -0.04 ± 0.098; I 0.037 ± 0.1; Q -0.007 ± 0.07; T 0.003 ± 0.059
